Where two headings read alike, the source gives them in different places.
Columns and labels:
[1] = Stability in mouse serum at 37 °C (iTLC); format: in vitro ADME
Experimental: Stability in PBS was determined by incubating 20 µL of the labeled compounds (∼11 MBq) in PBS (80 µL) at 37 °C. Radiochemical purity was determined by iTLC at 30 min, 1 h, 2 h and 4 h. Stability in the serum was carried out by adding 70 µL of the labeled compound (∼35 MBq) to 330 µL of mouse serum (Merck, Haarlerbergweg, The Netherlands). The mixture was incubated at 37 °C. At different time points (30 min, 1 h, 2 h and 4 h), an aliquot of the mixture (50 µL) was added to 50 µL ACN. The vial was vortexed and centrifuged at 10,000 rpm for 20 min and the supernatant was analyzed by iTLC.

[2] = Ex vivo biodistribution after SPECT/CT scanning; format: in vivo, mouse; conditions: mouse, iv, ~3 h p.i.; for tissue to tissue ratio: male, Balb/c nu/nu, total radioactivity, radioactivity; for tissue uptake at 3 h: PC-3 xenograft mice, i.v.
[3] = In vivo SPECT/CT imaging, VOI quantification; conditions: male, Balb/c nu/nu, mouse, tumor and kidneys (in vivo VOIs), iv, total radioactivity; from SPECT VOI %IA/mL, 2 h p.i., i.v., non-blocked, n = 3; read-out: Tumor-to-kidney ratio (SPECT)
Experimental: Seven-week-old male Balb/c nu/nu-specific and opportunistic pathogen-free (SOPF) mice (Janvier Labs, Le Genest-Saint-Isle, France) were housed in individually ventilated cages, with 4 mice per cage. Upon arrival, mice were acclimated for 1 week, with access to food and water ad libitum. […]
Mice (n = 3 per probe) were intravenously injected in the tail vein with 200 µL of Kolliphor® HS 15 (Merck, Haarlerbergweg, The Netherlands) in PBS (0.06 mg/mL) containing [^111In]In-12 (13.40 ± 0.76 MBq, ~670 pmol) or [^111In]In-15 (17.50 ± 1.78 MBq, ~875 pmol). […] The CT and registered, attenuation-corrected SPECT images were analyzed using PMOD (PMOD 3.9, Zurich, Switzerland) and quantification was performed by placing volumes of interest (VOIs) around the tumors and kidneys. An Eppendorf tube filled with a solution of indium-111 of a known activity was measured to determine the calibration factor. The total activity measured in the VOI was divided by the volume of all VOI pixel values and multiplied by the calibration factor to obtain the percentage of injected activity per volume unit (%IA/mL).

Structure (SMILES): CC(C)CC(CC(C)C)NC(=O)[C@H](Cc1c[nH]cn1)NC(=O)CNC(=O)[C@@H](NC(=O)[C@H](C)NC(=O)[C@H](Cc1c[nH]c2ccccc12)NC(=O)[C@H](CCC(N)=O)NC(=O)[C@@H](Cc1ccccc1)NC(=O)CCOCCOCCOCCOCCNC(=O)[C@H](CCCCNC(=O)OC1CCCC2C=NN=C(c3ccc(CNC(=O)CCCCC[N+]4=C(/C=C/C=C/C=C5N(C)c6ccc(S(=O)(=O)O)cc6C5(C)C)C(C)(C)c5cc(S(=O)(=O)[O-])ccc54)cc3)C2CC1)NC(=O)CN1CCN(CC(=O)O)CCN(CC(=O)O)CCN(CC(=O)O)CC1)C(C)C (some centres unmarked) [[^111In]In-15, metal not drawn]
- Stability in Mouse Serum (%) 30 min ([1]; intact labeled ligand after incubation at 37 °C in mouse serum, 30 min, n = 1): 96.9%
- Stability in Mouse Serum (%) 1 h ([1]; intact labeled ligand after incubation at 37 °C in mouse serum, 1 h, n = 1): 96.7%
- Stability in Mouse Serum (%) 2 h ([1]; intact labeled ligand after incubation at 37 °C in mouse serum, 2 h, n = 1): 96.9%
- Stability in Mouse Serum (%) 4 h ([1]; intact labeled ligand after incubation at 37 °C in mouse serum, 4 h, n = 1): 97.1%
- Protein-Bound Fraction at 4 h (%) ([1]; mouse serum, 4 h): 6.5%
- tissue to tissue ratio ([2]; tumor and blood, non-blocked, n = 3, read-out: Tumor-to-blood ratio): 0.38 ± 0.04
- tissue to tissue ratio ([2]; tumor and kidney, blocked with 150 nmol unlabeled NeoB, n = 1, read-out: Tumor-to-kidney ratio): 0.24
- tissue to tissue ratio ([2]; tumor and kidney, non-blocked, n = 3, read-out: Tumor-to-kidney ratio): 0.45 ± 0.04
- tissue to tissue ratio ([2]; tumor and liver, blocked with 150 nmol unlabeled NeoB, n = 1, read-out: Tumor-to-liver ratio): 0.49
- tissue to tissue ratio ([2]; tumor and liver, non-blocked, n = 3, read-out: Tumor-to-liver ratio): 0.78 ± 0.04
- tissue to tissue ratio ([2]; tumor and muscle, blocked with 150 nmol unlabeled NeoB, n = 1, read-out: Tumor-to-muscle ratio): 3.42
- tissue to tissue ratio ([2]; tumor and muscle, non-blocked, n = 3, read-out: Tumor-to-muscle ratio): 6.27 ± 0.44
- tissue to tissue ratio ([2]; tumor and pancreas, blocked with 150 nmol unlabeled NeoB, n = 1, read-out: Tumor-to-pancreas ratio): 2.95
- tissue to tissue ratio ([2]; tumor and pancreas, non-blocked, n = 3, read-out: Tumor-to-pancreas ratio): 0.72 ± 0.08
- tissue uptake at 3 h ([2]; blood, blocked with 150 nmol unlabeled NeoB, n = 1, read-out: Blood uptake): 13.9 %ID/g
- tissue uptake at 3 h ([2]; blood, non-blocked, n = 3, read-out: Blood uptake): 18.3 ± 2.12 %ID/g
- tissue uptake at 3 h ([2]; bone, blocked with 150 nmol unlabeled NeoB, n = 1, read-out: Bone uptake): 2.82 %ID/g
- tissue uptake at 3 h ([2]; bone, non-blocked, n = 3, read-out: Bone uptake): 3.05 ± 0.74 %ID/g
- tissue uptake at 3 h ([2]; brain, blocked with 150 nmol unlabeled NeoB, n = 1, read-out: Brain uptake): 0.51 %ID/g
- tissue uptake at 3 h ([2]; brain, non-blocked, n = 3, read-out: Brain uptake): 0.67 ± 0.28 %ID/g
- tissue uptake at 3 h ([2]; cecum, blocked with 150 nmol unlabeled NeoB, n = 1, read-out: Cecum uptake): 2.31 %ID/g
- tissue uptake at 3 h ([2]; cecum, non-blocked, n = 3, read-out: Cecum uptake): 5.21 ± 1.94 %ID/g
- tissue uptake at 3 h ([2]; heart, blocked with 150 nmol unlabeled NeoB, n = 1, read-out: Heart uptake): 3.27 %ID/g
- tissue uptake at 3 h ([2]; heart, non-blocked, n = 3, read-out: Heart uptake): 5.43 ± 0.69 %ID/g
- tissue uptake at 3 h ([2]; kidneys, blocked with 150 nmol unlabeled NeoB, n = 1, read-out: Kidneys uptake): 18.2 %ID/g
- tissue uptake at 3 h ([2]; kidneys, non-blocked, n = 3, read-out: Kidneys uptake): 15.4 ± 0.5 %ID/g
- tissue uptake at 3 h ([2]; large intestine, blocked with 150 nmol unlabeled NeoB, n = 1, read-out: Large intestine uptake): 2.35 %ID/g
- tissue uptake at 3 h ([2]; large intestine, non-blocked, n = 3, read-out: Large intestine uptake): 5.6 ± 1.44 %ID/g
- tissue uptake at 3 h ([2]; liver, blocked with 150 nmol unlabeled NeoB, n = 1, read-out: Liver uptake): 8.93 %ID/g
- tissue uptake at 3 h ([2]; liver, non-blocked, n = 3, read-out: Liver uptake): 8.87 ± 0.65 %ID/g
- tissue uptake at 3 h ([2]; lungs, blocked with 150 nmol unlabeled NeoB, n = 1, read-out: Lungs uptake): 18.9 %ID/g
- tissue uptake at 3 h ([2]; lungs, non-blocked, n = 3, read-out: Lungs uptake): 6.77 ± 1.73 %ID/g
- tissue uptake at 3 h ([2]; muscle, blocked with 150 nmol unlabeled NeoB, n = 1, read-out: Muscle uptake): 1.28 %ID/g
- tissue uptake at 3 h ([2]; muscle, non-blocked, n = 3, read-out: Muscle uptake): 1.1 ± 0.09 %ID/g
- tissue uptake at 3 h ([2]; pancreas, blocked with 150 nmol unlabeled NeoB, n = 1, read-out: Pancreas uptake): 1.49 %ID/g
- tissue uptake at 3 h ([2]; pancreas, non-blocked, n = 3, read-out: Pancreas uptake): 9.72 ± 1.63 %ID/g
- tissue uptake at 3 h ([2]; prostate, blocked with 150 nmol unlabeled NeoB, n = 1, read-out: Prostate uptake): 1.42 %ID/g
- tissue uptake at 3 h ([2]; prostate, non-blocked, n = 3, read-out: Prostate uptake): 3.27 ± 0.74 %ID/g
- tissue uptake at 3 h ([2]; small intestine, blocked with 150 nmol unlabeled NeoB, n = 1, read-out: Small intestine uptake): 1.97 %ID/g
- tissue uptake at 3 h ([2]; small intestine, non-blocked, n = 3, read-out: Small intestine uptake): 3.79 ± 0.69 %ID/g
- tissue uptake at 3 h ([2]; spleen, blocked with 150 nmol unlabeled NeoB, n = 1, read-out: Spleen uptake): 5.05 %ID/g
- tissue uptake at 3 h ([2]; spleen, non-blocked, n = 3, read-out: Spleen uptake): 5.86 ± 1.7 %ID/g
- tissue uptake at 3 h ([2]; stomach, blocked with 150 nmol unlabeled NeoB, n = 1, read-out: Stomach uptake): 3.48 %ID/g
- tissue uptake at 3 h ([2]; stomach, non-blocked, n = 3, read-out: Stomach uptake): 4.4 ± 1.04 %ID/g
- tissue uptake at 3 h ([2]; tumor, blocked with 150 nmol unlabeled NeoB, n = 1, read-out: Tumor uptake): 4.39 %ID/g
- tissue uptake at 3 h ([2]; tumor, non-blocked, n = 3, read-out: Tumor uptake): 6.9 ± 0.81 %ID/g
- tissue to tissue ratio at 2 h [3]: 0.49 ± 0.05

Source: paper PMC8778164, “Towards Complete Tumor Resection: Novel Dual-Modality Probes for Improved Image-Guided Surgery of GRPR-Expressing Prostate Cancer” (Pharmaceutics, 2022)
